Test results taken from patent US20240165282A1, “CONFORMATIONAL CONSTRAINED SOMATOSTATIN RECEPTOR 3 PEPTIDE LIGANDS AND THEIR CONJUGATES AND USES THEREOF” (STARGET PHARMA LTD., priority 2021, published 2024).
Several values for one entry are separate records, joined by “and”; a condition that tells them apart may be missing. Identical values can stand only once. *1 amine or outer side, *2 acyl side, *3 side chain or, on linkers, in order; H or OH if unused. Where a SMILES comes first, the peptide text is derived from it. Bridges are numbered along the chain shown (N, C = ends). [ ]: non-standard residue; d: D form. The star is where a group is joined. DOTA = O=C(O)CN1CCN(CC(=O)O)CCN(CC(=O)*)CCN(CC(=O)O)CC1; N(2-mercaptoethyl)Gly = O=C(CN(CCS[*:3])[*:1])[*:2]

Experiments:
[1] = tested on: insulin release; experiment: Glucose induced insulin release in rats; format: in vivo, Wistar rats; details: S.C. 100-1000 microgram/kg, glucose stimulation
Method: In vivo determination of the pharmacodynamic properties of SSTR3 analogs was carried out in rats, according to known procedures (Afargan M. et al., 2001, Pless J. et al 1986).
Adult male Wistar rats weighing 200-220 g, were maintained on a constant light-dark cycle (light from 8:00 to 20:00 h), temperature (21±3° C.), and relative humidity (55±10%). Laboratory chow and tap water were available ad libitum. All animals in the study were fasted overnight, animals were placed in cages with metal mesh to prevent coprophagia with free access to water. On the day of the experiment, rats were anesthetized with Nembutal (IP, 60 mg/kg). Ten minutes after anesthesia, drugs were administrated S.C. at 100-1000 microgram/kg dose. At 10 minutes after drugs administration the stimulation of GH and glucagon release were carried out by i.v. bolus administration of 0.5 g/kg L-arginine, stimulation of insulin release was carried out in separate animal groups that received i.v. bolus of 0.5 g/kg of glucose. Terminal blood samples in EDTA were collected at 5 minutes after stimulation. Blood samples were and centrifuged immediately. Plasma was separated and kept frozen at −20° C. until assayed.
Rat growth hormone (rGH), glucagon and insulin levels were determined by commercial ELISA kits using the Millipore ELISA kits (Billerica, MA, USA). The ELISA kit for rat plasma GH, Millipore, Cat. No. EZRMGH-45K was performed according to the validated detection method of colorimetric sandwich ELISA protocol (Supriya S. et al., 2013). The ELISA kit for rat plasma insulin, Millipore Cat. No. MMEZRMI13K (Merck) was performed according to the validated detection method of fluorescent colorimetric protocol (Xu, P.Z. et al., 2012). The ELISA kit for rat plasma glucagon, Millipore, Cat. No. EZGLU-35 was performed according to the validated detection method of chemiluminescent sandwich ELISA protocol (Soyeon Y. et al., 2021).
Data analysis of rat plasma GH, glucagon and insulin levels was evaluated by the averaged plasma hormones levels of each group. […] Results are expressed as the mean±SEM.

[2] = in vivo; details: iv, total radioactivity
Method: (§1) In this example, imaging performance, biodistribution and tumor uptake of SSTR3 selective radioligands in rodents bearing xenografts of transfected SSTR3 cells was determined using the following method: Animal handling was conducted in accordance with the European Council Directive 2010/63/UE. All experimental procedures were approved by the Institutional Ethical Committee and local authorities. For biodistribution studies, female nude nu/nu Balb/c mice or nude nu/nu rats (Charles River) were used. Dynamic PET-CT imaging experiments were performed up to 240 minutes in mice and up to 270 minutes in rats, under isoflurane anesthesia following the intravenous injection of the radiolabeled tracers. All experiments were performed during the light phase of the light—dark cycle. Biodistribution was determined by quantitative analysis of the PET-CT scan and calculated as % percentage of […] of the total injected dose (%ID/g) or by the value of SUV which is the ratio of the image-derived radioactivity concentration Cimg and the whole-body concentration of the injected radioactivity Cinj.

[3] = tested on: Xenograft of SSTR3 transfected HEK-293 cells; experiment: in vivo; details: rat
Method: as §1

[4] = tested on: Desmoplastic Small Round Cell Tumor with SSTR3 expression; format: in vivo, human
Method: In this example, the safety, biodistribution, imaging performance and tumor uptake in patient with sarcoma type DSRCT tumor positive SSTR3 expression was evaluated. Following radiolabeling of the title compound, the eluted solution of the radiolabel tracer was filtered for sterility and injected intravenously in isotonic solution. PET-CT scan was performed at 30- and 120-minutes post injection of the radiolabeled tracer at approximately 600 Mbq. Body temperature, heart rate, and blood pressure were monitored before during and after the PET-CT scan for safety evaluation. The patient was a person, diagnosed for DSRCT 8 years prior. Over the last 8 years, before the current example, the patient was treated with External beam radiation therapy (EBRT), chemotherapy (Irinotecan/temozolomide, melphalan/treosuflan, gemcitabine/docetaxel, pazopanib, topotecan/cyclophosphamide, cabozantinib, densumab), and laminectomy (to resect spine—tumoral foci). A biopsy analysis was performed 3 months before the PET-CT and indicated high mRNA expression of SSTR3.

[5] = tested on: SSTR3-tGFP-U2OS cells; experiment: Cellular internalization of 177Lu radiolabeled compounds; format: cell-based, human; details: 4 h
Method: In order to evaluate the cellular internalization of the ^177Lu radiolabeled SEQ ID NO: 6 in comparison to SEQ ID NO: 19 in SSTR3 transfected human cancer cell line to predict the tumor uptake of the radiolabeled compounds, the following example was performed.
Comparative SSTR3 receptor mediated internalization, was determined by incubation of the cultivate cancer cells with the ^177Lu radiolabeled compounds and determination of cellular uptake following washes of the cell culture. To evaluate the internalization as a receptor mediated process, the same experiments were performed in the presence of high concentration of cold SSTR3 ligands.
U2OS cells grow as a monolayer at +37° C. in a humidified atmosphere (5% CO2, 95% air). U2OS cancer cells are adherent to plastic flasks. For experimental use, these cancer cells are detached from the culture flask by a 5-minute treatment with trypsin-versene, in Hanks' medium without calcium or magnesium and neutralized by addition of complete culture medium.
The assay was performed as follows: Transfected human osteosarcoma cells SSTR3-tGFP-U2OS were plated in 6 well plate, 24 hours before the assay to have 80-90% confluency at the day of the assay. 30 minutes before the assay, medium was removed, and cells were washed with tempered Dulbecco's Phosphate Buffered Saline (DPBS, Sigma) and fresh medium (250 μL) is added. For total cellular uptake, 20 nM of the radioligand SEQ ID NO: 6 or SEQ ID NO: 19 were diluted in cell medium (250 μL) added to each well, in triplicate (final radioligand concentration: 10 nM). For non-specific binding, 20 μM (1000 in excess) of cold SEQ ID NO: 4 or cold SEQ ID NO: 6 or SEQ ID NO: 1 and 20 nM of ^177Lu-DOTA-PTR-58 radioligand solution in cell medium (250 μL) were added to each well, in triplicate (final cold peptide concentration: 10 μM; final radioligand concentration: 10 nM). The plates were incubated for 4 hours at +37° C. (air containing 5% CO2, humidified atmosphere). At the end of incubation, the plates were placed on ice to stop any internalization process. The medium, containing the free radioligand fraction, was collected and the cells were washed twice (2×750 μL) with ice-cold DPBS. The medium and the PBS washes were collected in the same vial from each well (final volume […]). The radioactivity of the cell pellets was counted by gamma counter and represents the cellular uptake as percentage of the administrated radioactivity. The radioactivity readouts of the wash-media were used for mass balance.

[6] = molecular target: SSTR5 (Homo sapiens, UniProt P35346); experiment: Radioligand binding, displacement of 125I-Tyr11-SRIF-14; set-up: host or cells: Chem-1 (Rat ChemiSCREEN) cells, membrane preparation; details: hSSTR-5
From the text: (§2) The binding to human cloned receptors SSTR-1, or SSTR-2 or SSTR-3 evaluated in stable and selective transfected CHO (Chinese Hamster Ovary) cells and binding to STSR-4 and SSTR-5 in stable and selective transfected Chem-1 (Rat ChemiSCREEN) cells. […] The binding reactions were filtered, the filters were washed, and the bound radioactivity was counted using a gamma counter.
(§3) The following table depicts the conditions of binding assay to each of the somatostatin receptors used for the evaluations of binding affinities of the tested peptides. All assays were performed by quantitation method of radioligand binding under 25° C. The vehicle was 1% DMSO, the incubation buffer was 25 mM HEPES, pH 7.4, 5 mM MgCl2, 1 mM CaCl2, 0.1% BSA. […] The significance criteria were >50% of max inhibition. […] This specific binding data used for calculation of Bmax values which is the concentration of each of the expressed cloned receptor in its transfected cell system.
(§4) The Results of IC50 values were determined by a non-linear, least squares regression analysis using MathIQ™ (ID Business Solutions Ltd., UK). […] The Hill coefficient (nH), defining the slope of the competitive binding curve, was calculated using MathIQ™.

[7] = molecular target: SSTR2 (Homo sapiens, UniProt P30874); experiment: as above; set-up: host or cells: CHO (Chinese Hamster Ovary) cells, membrane preparation; details: hSSTR-2
From the text: as §2, §3, §4

[8] = molecular target: SSTR1 (Homo sapiens, UniProt P30872); experiment: as above; set-up: host or cells: CHO (Chinese Hamster Ovary) cells, membrane preparation; details: hSSTR-1
From the text: as §2, §3, §4

[9] = molecular target: SSTR3 (Homo sapiens, UniProt P32745); experiment: as above; set-up: host or cells: CHO (Chinese Hamster Ovary) cells, membrane preparation; details: hSSTR-3
From the text: as §2, §3, §4

[10] = molecular target: T1, hSSTR-4 (Homo sapiens, UniProt P31391); experiment: as above; details: hSSTR-4
T1 construct: host or cells: Chem-1 (Rat ChemiSCREEN) cells, membrane preparation
From the text: as §2, §3, §4

[11] = female, nude nu/nu Balb/c, mouse, Kidneys % ID/cm^3
[12] = female, nude nu/nu Balb/c, mouse, Tumor % ID/cm^3

T1 sequence (P31391 whole entry): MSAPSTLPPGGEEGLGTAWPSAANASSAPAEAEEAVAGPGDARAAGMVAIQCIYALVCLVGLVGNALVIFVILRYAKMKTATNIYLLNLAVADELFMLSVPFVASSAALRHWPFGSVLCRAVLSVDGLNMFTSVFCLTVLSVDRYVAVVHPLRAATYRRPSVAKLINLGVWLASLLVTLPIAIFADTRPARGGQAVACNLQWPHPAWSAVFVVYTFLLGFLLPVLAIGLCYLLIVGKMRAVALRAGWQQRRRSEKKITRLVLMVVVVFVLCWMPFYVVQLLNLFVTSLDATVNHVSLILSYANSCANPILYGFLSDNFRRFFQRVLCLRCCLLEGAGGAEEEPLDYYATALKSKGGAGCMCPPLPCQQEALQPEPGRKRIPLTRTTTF
SSTR3, sequence (P32745 whole entry): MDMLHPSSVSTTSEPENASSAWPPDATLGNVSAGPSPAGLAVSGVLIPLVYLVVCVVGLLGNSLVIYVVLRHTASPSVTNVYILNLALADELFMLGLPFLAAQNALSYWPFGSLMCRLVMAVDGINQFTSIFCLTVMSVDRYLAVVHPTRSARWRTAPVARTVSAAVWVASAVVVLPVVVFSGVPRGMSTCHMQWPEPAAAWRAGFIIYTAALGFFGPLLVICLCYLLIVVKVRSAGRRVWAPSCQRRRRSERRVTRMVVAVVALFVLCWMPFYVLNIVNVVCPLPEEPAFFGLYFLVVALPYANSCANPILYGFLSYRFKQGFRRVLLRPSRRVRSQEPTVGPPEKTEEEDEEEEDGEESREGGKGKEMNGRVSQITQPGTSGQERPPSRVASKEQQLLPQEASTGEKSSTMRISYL
SSTR2, sequence (P30874 whole entry): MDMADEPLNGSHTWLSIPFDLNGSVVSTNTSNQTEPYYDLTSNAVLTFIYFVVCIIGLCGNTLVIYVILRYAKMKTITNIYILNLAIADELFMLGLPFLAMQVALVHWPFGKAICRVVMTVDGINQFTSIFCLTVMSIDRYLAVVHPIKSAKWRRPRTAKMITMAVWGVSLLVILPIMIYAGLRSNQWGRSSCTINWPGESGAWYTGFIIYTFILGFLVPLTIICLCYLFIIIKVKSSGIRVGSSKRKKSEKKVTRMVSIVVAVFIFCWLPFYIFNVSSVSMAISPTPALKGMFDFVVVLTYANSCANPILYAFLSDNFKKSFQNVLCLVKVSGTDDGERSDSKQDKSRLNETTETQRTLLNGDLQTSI
SSTR1, sequence (P30872 whole entry): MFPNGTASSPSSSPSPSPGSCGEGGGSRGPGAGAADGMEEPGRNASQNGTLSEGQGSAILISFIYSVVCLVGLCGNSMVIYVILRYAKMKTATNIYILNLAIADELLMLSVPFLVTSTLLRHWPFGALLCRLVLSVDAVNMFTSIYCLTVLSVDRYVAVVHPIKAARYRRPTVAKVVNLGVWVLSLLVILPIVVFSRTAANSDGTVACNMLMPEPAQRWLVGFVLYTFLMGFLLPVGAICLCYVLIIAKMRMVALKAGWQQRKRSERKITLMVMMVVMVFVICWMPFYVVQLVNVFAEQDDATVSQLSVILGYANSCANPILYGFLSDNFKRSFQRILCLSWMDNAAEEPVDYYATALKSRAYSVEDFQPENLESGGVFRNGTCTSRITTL
SSTR5, sequence (P35346 whole entry): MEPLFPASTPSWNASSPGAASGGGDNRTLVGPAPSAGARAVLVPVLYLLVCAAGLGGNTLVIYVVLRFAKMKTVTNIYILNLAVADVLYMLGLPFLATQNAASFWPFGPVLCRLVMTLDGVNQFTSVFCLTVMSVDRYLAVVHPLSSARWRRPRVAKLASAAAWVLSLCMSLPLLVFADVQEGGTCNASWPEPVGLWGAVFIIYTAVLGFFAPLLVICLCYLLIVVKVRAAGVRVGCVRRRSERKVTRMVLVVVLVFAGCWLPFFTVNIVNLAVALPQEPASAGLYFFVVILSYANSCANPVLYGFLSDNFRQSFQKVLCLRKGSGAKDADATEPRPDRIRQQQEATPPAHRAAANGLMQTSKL

## C[C@@H](O)[C@@H]1NC(=O)[C@H](CCCCN)NC(=O)[C@@H](Cc2c[nH]c3ccccc23)NC(=O)[C@H](Cc2ccccc2)NC(=O)[C@@H](NC(=O)[C@H](N)Cc2ccccc2)CSSC[C@@H](C(=O)N[C@H](CO)[C@@H](C)O)NC1=O [octreotide, reference compound]
[1]
  effect on insulin release: exhibits anti-secretagogue effect of pancreatic release of insulin

## C[C@@H](O)[C@@H]1NC(=O)[C@H](CCCCN)NC(=O)[C@@H](Cc2c[nH]c3ccccc23)NC(=O)[C@H](Cc2ccccc2)NC(=O)[C@@H](NC(=O)[C@H](CCCNC(=N)N)NC(=O)[C@@H](Cc2ccccc2)NC(=O)CN2CCN(CC(=O)O)CCN(CC(=O)O)CCN(CC(=O)O)CC2)CSSCCN(CC(N)=O)C(=O)[C@H](Cc2ccccc2)NC1=O [^68Ga -SEQ ID NO: 4, metal not drawn] ({DOTA}-[dF]RCF[dW]KTF[N(2-mercaptoethyl)Gly]-NH2; disulfide 3-9)
[2]; [11]
  tissue uptake per volume at 2.5 h: 6 %ID/mL
  tissue uptake per volume at 4 h: 6.6 %ID/mL
[2]; [12]
  tissue uptake per volume at 2.5 h: 9.6 %ID/mL
  tissue uptake per volume at 4 h: 12.3 %ID/mL
[2]; nude nu/nu, rat, Kidneys % ID/cm^3
  tissue uptake per volume at 2.5 h: 3.2 %ID/mL
[2]; nude nu/nu, rat, Tumor % ID/cm^3
  tissue uptake per volume at 2.5 h: 4.7 %ID/mL
[3]
  tumor uptake above the kidneys (tumor/kidneys): approximately 50%
[3]; iv
  Kidneys SUV: 7.6
  Tumor SUV: 11.0
[4]; human, in vivo
  safety evaluations: no abnormal toxicity signs
  uptake in off-target organs: no uptake in off-target organs
[4]; human, in vivo, iv
  elimination of the tracer: rapid elimination of the tracer was observed from the blood to the kidneys
[4]; patient with DSRCT, FIG. 9
  tumor uptake (radioactive foci): several radioactive foci were detected in the lung, neck and pelvic regions

## ^177Lu -SEQ ID NO: 6 ({DOTA}-[dF]RCF[dW]KTF[N(2-mercaptoethyl)Gly]-NH2; disulfide 3-9; also: 177Lu complex of DOTA)
[5]; 177Lu radiolabeled, 10 nM, no blocking
  % Total cellular uptake: 15.5 ± 0.28% and 22.1 ± 0.5%
[5]; 177Lu radiolabeled, 10 nM, no blocking, listed as 177Lu radiolabeled SEQ ID NO. 6
  % Total cellular uptake: 22%
[5]; + SEQ ID NO: 4 (cold 69/71Ga for blocking)
  % Total cellular uptake: 0.9 ± 0.02%
[5]; + SEQ ID NO: 6 (cold 175Lu for blocking)
  % Total cellular uptake: 0.6 ± 0.02%

## DOTA-Ala^1-D-Phe^2-Arg^3-Cys^4-Phe^5-D-Trp^6-Lys^7-Thr^8-Phe^9-NTEG^10-NH2 (cyclo 4-10) ({DOTA}-A[dF]RCF[dW]KTF[N(2-mercaptoethyl)Gly]-NH2; disulfide 4-10; SMILES C[C@H](NC(=O)CN1CCN(CC(=O)O)CCN(CC(=O)O)CCN(CC(=O)O)CC1)C(=O)N[C@H](Cc1ccccc1)C(=O)N[C@@H](CCCNC(=N)N)C(=O)N[C@H]1CSSCCN(CC(N)=O)C(=O)[C@H](Cc2ccccc2)NC(=O)[C@H]([C@@H](C)O)NC(=O)[C@H](CCCCN)NC(=O)[C@@H](Cc2c[nH]c3ccccc23)NC(=O)[C@H](Cc2ccccc2)NC1=O) [SEQ ID NO: 12]
[6]; at 1 nM (in brackets)
  % displacement of [^125I] Tyr^11-SRIF-14: 0%
[6]; at 10 nM
  % displacement of [^125I] Tyr^11-SRIF-14: 13%
[7]; at 1 nM (in brackets)
  % displacement of [^125I] Tyr^11-SRIF-14: 0(0) %
[7]; at 10 nM
  % displacement of [^125I] Tyr^11-SRIF-14: 0(0) %
[8]; at 1 nM (in brackets)
  % displacement of [^125I] Tyr^11-SRIF-14: 0%
[8]; at 10 nM
  % displacement of [^125I] Tyr^11-SRIF-14: 10%
[9]; at 1 nM (in brackets)
  % displacement of [^125I] Tyr^11-SRIF-14: 64%
[9]; at 10 nM
  % displacement of [^125I] Tyr^11-SRIF-14: 93%
[10]; at 1 nM (in brackets)
  % displacement of [^125I] Tyr^11-SRIF-14: 0(0) %
[10]; at 10 nM
  % displacement of [^125I] Tyr^11-SRIF-14: 0(0) %
